Results published in doi:10.1101/383430 (bioRxiv, 2018).

Molecular target: T1, FAP45 (flagellar-associated protein 45) (Chlamydomonas (endogenous in axonemes), UniProt A8I9E8 1-501)
T1 sequence (looked up): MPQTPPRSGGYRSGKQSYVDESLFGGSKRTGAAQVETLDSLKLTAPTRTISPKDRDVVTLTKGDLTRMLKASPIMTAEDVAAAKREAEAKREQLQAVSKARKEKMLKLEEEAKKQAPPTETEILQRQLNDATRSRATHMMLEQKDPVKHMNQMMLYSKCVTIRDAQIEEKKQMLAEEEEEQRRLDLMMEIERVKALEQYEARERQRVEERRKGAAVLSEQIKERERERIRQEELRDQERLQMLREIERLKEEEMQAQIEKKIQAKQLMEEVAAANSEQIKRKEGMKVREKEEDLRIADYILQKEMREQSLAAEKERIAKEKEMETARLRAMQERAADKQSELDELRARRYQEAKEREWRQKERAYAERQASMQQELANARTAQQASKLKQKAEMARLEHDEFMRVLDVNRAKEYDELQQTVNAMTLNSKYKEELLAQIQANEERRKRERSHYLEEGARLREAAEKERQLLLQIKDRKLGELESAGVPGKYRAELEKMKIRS
Experiment: cross-linking

B1: FAP52 (flagellar-associated protein 52) (natural protein, Chlamydomonas (endogenous in axonemes), UniProt A8ILK1 1-615, looked up)
chain: MAEPLVLNSVIGFGGAIENGLIAHPDGRTIIYPLGSTIVLRDRADPRSQEFLQGHSDKVSCLALSRSGRYLASGQITYMGFTADIIIWDLESKQLIHRMALHKVKVQALDFSCDERFLASLGGQDDNALVLWDVASGNAICGSPCNTNFTNCVKFFNNSPDKLITAGNFNMNVWTYDAGNNKLRPTDATLGTLKRVFKSVVVDANDEYAYCGTTTGDVLQIALERVLFKNTGPAKGNVQMGVTATCEVPTGDILVGGGDGSLQLLRKMPALAGTKVEGAITSIALADMNARGFTFFVGTAMCNIYKPATSRLKEELVQTAHNDKINGMAFPNEYSEVFATCGTGFIRLWHLTTCRELLRIAVPNLECFCIAFTTDGSAILSGWSDGKIRAFGPQSGKIIFTINDAHQKAVTAIASTADSSRILSGGEEGMVRVWRIGRTSQTLEASMKDHKGPVNCIRIKGSGDECVSASSDGSCILWDLHTFKRRTSLFANTFFKSVVYHPDESQLVTAGTDRKVTYWDAYDGNAIRIIDGSDLDEVNALAVDRDGEALVSGGGDKLVKLWGYDEGHCYFVGVAHSGAITAVGVTPDKQRIVSVGTEGGIFIWDYQRPQTLADI
- stoichiometry N: ~1
